Source: patent publication US20200317768A1 (published 2020)
Changes are numbered by the printed parent chain.

T1: human FcγRIIb extracellular domain, His-tagged (human, UniProt P31994 43-217)
T1 construct: also called FcgRIIb (human); not shown: C-terminal His-tag
T1 sequence: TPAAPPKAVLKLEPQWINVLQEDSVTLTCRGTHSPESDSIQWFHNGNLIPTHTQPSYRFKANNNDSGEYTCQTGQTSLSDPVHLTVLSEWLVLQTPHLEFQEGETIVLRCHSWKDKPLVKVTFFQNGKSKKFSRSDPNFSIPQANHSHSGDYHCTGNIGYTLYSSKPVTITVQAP

T2: cynomolgus monkey FcγRIIa1 extracellular domain, His-tagged (cynomolgus monkey)
T2 construct: also called cyno FcγRIIa1; cynoFcgRIIa1; not shown: C-terminal His-tag
T2 chain: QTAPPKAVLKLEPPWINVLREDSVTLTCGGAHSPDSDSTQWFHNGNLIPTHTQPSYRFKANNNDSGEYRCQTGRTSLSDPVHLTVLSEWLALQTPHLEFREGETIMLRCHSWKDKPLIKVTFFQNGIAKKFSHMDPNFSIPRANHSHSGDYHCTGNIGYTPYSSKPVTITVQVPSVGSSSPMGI

T3: human FcγRIIaR extracellular domain, His-tagged (human, UniProt P12318 34-217)
T3 construct: also called human FcγRIIa (type R); FcgRIIaR; not shown: C-terminal His-tag
T3 chain: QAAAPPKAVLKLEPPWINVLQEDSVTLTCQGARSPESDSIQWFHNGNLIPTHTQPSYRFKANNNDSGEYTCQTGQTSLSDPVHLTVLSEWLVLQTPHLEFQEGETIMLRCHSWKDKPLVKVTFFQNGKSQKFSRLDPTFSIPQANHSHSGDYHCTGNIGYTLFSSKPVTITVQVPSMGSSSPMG

T4: cynomolgus monkey FcγRIIa2 extracellular domain, His-tagged (cynomolgus monkey)
T4 construct: also called cyno FcγRIIa2; cynoFcgRIIa2; not shown: C-terminal His-tag
T4 chain: T2 chain with P95T, T121A, I127K, A128S, K130N, D135N, R142Q

T5: cynomolgus monkey FcγRIIa3 extracellular domain, His-tagged (cynomolgus monkey)
T5 construct: also called cyno FcγRIIa3; cynoFcgRIIa3; not shown: C-terminal His-tag
T5 chain: T2 chain with P95T, T121A, A128S, H133P, D135N

T6: cynomolgus monkey FcγRIIb extracellular domain, His-tagged (cynomolgus monkey)
T6 construct: also called cyno FcγRIIb; cynoFcγRIIb; not shown: C-terminal His-tag
T6 chain: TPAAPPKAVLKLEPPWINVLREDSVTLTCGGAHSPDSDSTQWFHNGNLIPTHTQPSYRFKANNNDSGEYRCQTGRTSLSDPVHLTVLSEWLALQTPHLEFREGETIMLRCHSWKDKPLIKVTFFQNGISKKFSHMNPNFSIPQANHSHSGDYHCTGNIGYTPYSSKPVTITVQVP

T7: human FcγRIIaH extracellular domain, His-tagged (human, UniProt P12318 34-217)
T7 construct: also called human FcγRIIa (type H); FcgRIIaH; not shown: C-terminal His-tag
T7 sequence: T3 chain with R134H

T8: cynomolgus monkey FcγRIIIaS extracellular domain, His-tagged (cynomolgus monkey, UniProt Q8SPW2 21-206 at identity 1.00))
T8 construct: also called cyno FcγRIIIaS; cynoFcγRIIIaS; not shown: C-terminal His-tag
T8 chain: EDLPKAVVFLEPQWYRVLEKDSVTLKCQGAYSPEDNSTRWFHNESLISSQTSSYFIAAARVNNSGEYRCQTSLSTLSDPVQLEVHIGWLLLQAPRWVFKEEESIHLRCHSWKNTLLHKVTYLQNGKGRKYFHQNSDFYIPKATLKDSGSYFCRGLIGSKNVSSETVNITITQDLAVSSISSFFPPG

B1: M103205H795-MY467/M103202L889-SK1 (antibody, human IgG1, kappa)
heavy: QVTLKESGPVLVKPTETLTLTCTVSGIDLSHDDISWVRQAPGKGLEWVGIISYAGSTYYASWAKGRLTISKDTSKNQVVLTMTNMDPVDTATYYCARGVPAYSHGGDLWGQGTLVTVSSASTKGPSVFPLAPSSKSTSGGTAALGCLVKDYFPEPVTVSWNSGALTSGVHTFPAVLQSSGLYSLSSVVTVPSSSLGTQTYICNVNHKPSNTKVDKKVEPKSCDKTHTCPPCPMPELLTGPSVFLFPPKPKDTLMISRTPEVTCVVVDVSDEDPEVKFNWYVDGVEVHNAKTKPREEQYNSTYRVVSVLTVLHQDWLNGKEYKCKVSNKALPKPIEKTISKAKGQPREPQVYTLPPSREEMTKNQVSLTCLVKGFYPSDIAVEWESNGQPENNYKTTPPVLDSDGSFFLYSKLTVDKSRWQQGNVFSCSVMHEALHNHYTQKSLSLSP
light: DIVMTQSPATLSLSPGERATLSCTSSQSVYHANWLSWFQQKPGQPPKLLIYWASTLAYGVPSRFSGSGSGTDFTLTISSLQPEDAATYYCAGGYGGGRYAFGQGTKVEIKRTVAAPSVFIFPPSDEQLKSGTASVVCLLNNFYPREAKVQWKVDNALQSGNSQESVTEQDSKDSTYSLSSTLTLSKADYEKHKVYACEVTHQGLSSPVTKSFNRGEC
notes: copies: 2 + 2
B2: M103205H795-MY468/M103202L889-SK1 (antibody, human IgG1, kappa)
heavy: B1 heavy with M233N
light: B1 light
notes: copies: 2 + 2
B3: M103205H795-MY469/M103202L889-SK1 (antibody, human IgG1, kappa)
heavy: B1 heavy with M233P
light: B1 light
notes: copies: 2 + 2
B4: M103205H795-MY470/M103202L889-SK1 (antibody, human IgG1, kappa)
heavy: B1 heavy with M233Q
light: B1 light
notes: copies: 2 + 2
B5: M103205H795-MY471/M103202L889-SK1 (antibody, human IgG1, kappa)
heavy: B1 heavy with M233R
light: B1 light
notes: copies: 2 + 2
B6: M103205H795-MY472/M103202L889-SK1 (antibody, human IgG1, kappa)
heavy: B1 heavy with M233S
light: B1 light
notes: copies: 2 + 2
B7: M103205H795-MY473/M103202L889-SK1 (antibody, human IgG1, kappa)
heavy: B1 heavy with M233T
light: B1 light
notes: copies: 2 + 2
B8: M103205H795-MY474/M103202L889-SK1 (antibody, human IgG1, kappa)
heavy: B1 heavy with M233V
light: B1 light
notes: copies: 2 + 2
B9: M103205H795-MY475/M103202L889-SK1 (antibody, human IgG1, kappa)
heavy: B1 heavy with M233W
light: B1 light
notes: copies: 2 + 2
B10: M103205H795-MY476/M103202L889-SK1 (antibody, human IgG1, kappa)
heavy: B1 heavy with M233Y
light: B1 light
notes: copies: 2 + 2

Legend:
[1] = molecular target: T1, human FcγRIIb extracellular domain, …; assay: SPR (BIACORE); KD of SG1 divided by KD of variant;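 further: relative to parent M103205H795-SG1 carrying the SG1 human heavy chain constant region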
[2] = molecular target: T2, cynomolgus monkey FcγRIIa1 …; assay: SPR (BIACORE); KD of SG1 divided by KD of variant;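 further: relative to parent M103205H795-SG1 carrying the SG1 human heavy chain constant region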
[3] = molecular target: T3, human FcγRIIaR extracellular domain, …; assay: SPR (BIACORE); KD of SG1 divided by KD of variant;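 further: relative to parent M103205H795-SG1 carrying the SG1 human heavy chain constant region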
[4] = molecular target: T4, cynomolgus monkey FcγRIIa2 …; assay: SPR (BIACORE); KD of SG1 divided by KD of variant;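 further: relative to parent M103205H795-SG1 carrying the SG1 human heavy chain constant region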
[5] = molecular target: T5, cynomolgus monkey FcγRIIa3 …; assay: SPR (BIACORE); KD of SG1 divided by KD of variant
[6] = molecular target: T6, cynomolgus monkey FcγRIIb extracellular …; assay: SPR (BIACORE); KD of SG1 divided by KD of variant
[7] = molecular target: T7, human FcγRIIaH extracellular domain, …; assay: SPR (BIACORE); KD of SG1 divided by KD of variant
[8] = molecular target: T8, cynomolgus monkey FcγRIIIaS …; assay: SPR (BIACORE); KD of SG1 divided by KD of variant
[9] = molecular target: T8, cynomolgus monkey FcγRIIIaS …; assay: SPR (BIACORE), captured antibody, FcgR as analyte

Binder	KD fold (SG1 = 1) [1] [fold]	KD fold (SG1 = 1) [2] [fold]	KD fold (SG1 = 1) [3] [fold]	KD fold (SG1 = 1) [4] [fold]	KD fold (SG1 = 1) [5] [fold]	KD fold (SG1 = 1) [6] [fold]	KD fold (SG1 = 1) [7] [fold]	KD fold (SG1 = 1) [8] [fold]	Kd [9] [µM]
B1	2.3	1.7	3.1	2.7	3.6	2.5	3.8	0.2	1.7
B2	1.8	1.1	2.3	2	3.3	2.8	2.5	0.2	2.3
B3	1.9	1.5	2.6	2.4	3.5	3	3.5	0.2	2.2
B4	2	1.5	2.5	2.8	3.5	3.3	3.3	0.2	1.7
B5	1.8	1.2	2.5	2.4	3.8	2.6	3	0.2	1.8
B6	1.8	1.5	2.2	2.4	3.3	2.7	3.8	0.2	2.5
B7	2.1	2	2.2	2	3.1	3.1	3.1	0.2	1.7
B8	2.3	1.6	3.2	2.8	3.5	3.6	4.1	0.2	1.6
B9	4.2	3.2	3.2	3.1	7.4	8.7	7.7	0.2	1.7
B10	3.8	2.3	4.4	3.9	6.5	4.6	4.9	0.2	2
